Test results as given in patent US5847088A, “Antibodies specific for platelet-activating factor acetylhydrolase” (ICOS Corporation, priority 1995, dated 1998).

Test system: zymosan A-induced edema
Assay: Rat foot edema model, zymosan A-induced
Format: in vivo
Details: 2000 U IV 15 minutes before zymosan A, 2 hours
Description: Six to eight-week-old female Long Evans rats (Charles River, Wilmington, Mass.), weighing 180-200 grams, were used for all experiments. Prior to experimental manipulations, animals were anesthetized with a mixture of the anesthetics Ketaset (Fort Dodge Laboratories, Fort Dodge, Iowa), Rompun (Miles, Shawnee Mission, Kans.), and Ace Promazine (Aveco, Fort Dodge, Iowa) administered subcutaneously at approximately 2.5 mg Ketaset, 1.6 mg Rompun, 0.2 mg Ace Promazine per animal per dose. Edema was induced in the foot by administration of either PAF or zymosan as follows. […] Animals received 50 μl PAF (final dose of 0.96 nmoles) subcutaneously between the hind foot pads, and edema was assessed after 1 hour and again after 2 hours in some experiments. […] Animals received 50 μl of zymosan (final dose of 500 μg) subcutaneously between the hind foot pads and edema was assessed after 2 hours.
Edema was quantitated by measuring the foot volume immediately prior to administration of PAF or zymosan and at indicated time point post-challenge with PAF or zymosan. Edema is expressed as the increase in foot volume in milliliters. […]
Rats (N=4 per group) were pretreated IV with either PAF-AH (2000 U in 300 μl carrier) or carrier alone. Fifteen minutes after pretreatment, groups received either PAF or zymosan A, and foot volume was assessed after 1 and 2 hours, respectively.

B1: PAF-AH: Recombinant human plasma platelet-activating factor acetylhydrolase (beginning at Ile42 of SEQ ID NO:8) expressed in E. coli (protein, UniProt Q13093 22-441, looked up)
Platelet-activating factor …: FDWQYINPVAHMKSSAWVNKIQVLMAAASFGQTKIPRGNGPYSVGCTDLMFDHTNKGTFLRLYYPSQDNDRLDTLWIPNKEYFWGLSKFLGTHWLMGNILRLLFGSMTTPANWNSPLRPGEKYPLVVFSHGLGAFRTLYSAIGIDLASHGFIVAAVEHRDRSASATYYFKDQSAAEIGDKSWLYLRTLKQEEETHIRNEQVRQRAKECSQALSLILDIDHGKPVKNALDLKFDMEQLKDSIDREKIAVIGHSFGGATVIQTLSEDQRFRCGIALDAWMFPLGDEVYSRIPQPLFFINSEYFQYPANIIKMKKCYSPDKERKMITIRGSVHQNFADFTFATGKIIGHMLKLKGDIDSNVAIDLSNKASLAFLQKHLGLHKDFDQWDCLIEGDDENLIPGTNINTTNQHIMLQNSSGIEKYN
effect on zymosan induced edema: failed to block
